Consider 1 protein from EP1471146A2 (Novartis AG, dated 2004).

The data set deals with the molecule itself. Nature of the data set: Western blot of soluble nuclear extracts, seminative electrophoresis (self-association, homotrimer). (In general: A western blot detects proteins with antibodies after separation by electrophoresis.)

B1: recombinant adenovirus type 5 (Ad5) fiber protein expressed from pCLF in cell lines 211A, 211B and 211R (other)
chain: MKRARPSEDTFNPVYPYDTETGPPTVPFLTPPFVSPNGFQESPPGVLSLRLSEPLVTSNGMLALKMGNGLSLDEAGNLTSQNVTTVSPPLKKTKSNINLEISAPLTVTSEALTVAAAAPLMVAGNTLTMQSQAPLTVHDSKLSIATQGPLTVSEGKLALQTSGPLTTTDSSTLTITASPPLTTATGSLGIDLKEPIYTQNGKLGLKYGAPLHVTDDLNTLTVATGPGVTINNTSLQTKVTGALGFDSQGNMQLNVAGGLRIDSQNRRLILDVSYPFDAQNQLNLRLGQGPLFINSAHNLDINYNKGLYLFTASNNSKKLEVNLSTAKGLMFDATAIAINAGDGLEFGSPNAPNTNPLKTKIGHGLEFDSNKAMVPKLGTGLSFDSTGAITVGNKNNDKLTLWTTPAPSPNCRLNAEKDAKLTLVLTKCGSQILATVSVLAVKGSLAPISGTVQSAHLIIRFDENGVLLNNSFLDPEYWNFRNGDLTEGTAYTNAVGFMPNLSAYPKSHGKTAKSNIVSQVYLNGDKTKPVTLTITLNGTQETGDTTPSAYSMSFSWDWSGHNYINEIFATSSYTFSYIAQE
notes: Monomer 62 kD, homotrimer 186 kD; Expressed in 293-derived lines 211A, 211B and 211R; also called recombinant fiber; type 5 fiber protein
For B1, the binding result is “binds”.
